In publication PMC10397247:

Legend:
4H_APH = biological target: T1, 4H_APH; test: two-hybrid library CCmax; conditions: mean of both orientations;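 note: natural log of median RNA to DNA barcode read ratio; higher means stronger binding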
T1 chain: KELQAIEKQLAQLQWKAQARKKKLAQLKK

4H384-AA = biological target: T2, 4H384-AA; test: two-hybrid library CCmax; conditions: mean of both orientations;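 note: natural log of median RNA to DNA barcode read ratio; higher means stronger binding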
T2 chain: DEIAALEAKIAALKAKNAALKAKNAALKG

4H3049-AA = biological target: T3, 4H3049-AA; test: two-hybrid library CCmax; conditions: mean of both orientations;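 note: natural log of median RNA to DNA barcode read ratio; higher means stronger binding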
T3 chain: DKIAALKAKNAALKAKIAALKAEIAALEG

4H_GCN4 = test: two-hybrid library CCmax; conditions: mean of both orientations;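 note: natural log of median RNA to DNA barcode read ratio; higher means stronger binding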
4H510-AA = biological target: T4, 4H510-AA; test: two-hybrid library CCmax; conditions: mean of both orientations;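 note: natural log of median RNA to DNA barcode read ratio; higher means stronger binding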
T4 chain: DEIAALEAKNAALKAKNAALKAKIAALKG

4H3905-AA = biological target: T5, 4H3905-AA; test: two-hybrid library CCmax; conditions: mean of both orientations;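 note: natural log of median RNA to DNA barcode read ratio; higher means stronger binding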
T5 chain: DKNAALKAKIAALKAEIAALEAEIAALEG

4H337-AA = biological target: T6, 4H337-AA; test: two-hybrid library CCmax; conditions: mean of both orientations
T6 chain: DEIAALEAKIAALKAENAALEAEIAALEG

4H451-AA = biological target: T7, 4H451-AA; test: two-hybrid library CCmax; conditions: mean of both orientations
T7 chain: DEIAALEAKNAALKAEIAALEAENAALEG

4H2888-AA = biological target: T8, 4H2888-AA; test: two-hybrid library CCmax; conditions: mean of both orientations
T8 chain: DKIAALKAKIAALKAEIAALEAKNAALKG

O14-AA = biological target: T9, O14-AA; test: two-hybrid library CCmax; conditions: mean of both orientations
T9 chain: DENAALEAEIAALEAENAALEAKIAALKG

4H4038-AA = biological target: T10, 4H4038-AA; test: two-hybrid library CCmax; conditions: mean of both orientations
T10 chain: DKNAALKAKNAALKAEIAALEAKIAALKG

4H3587-AA = biological target: T11, 4H3587-AA; test: two-hybrid library CCmax; conditions: mean of both orientations
T11 chain: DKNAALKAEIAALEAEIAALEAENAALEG

O11-AA = biological target: T12, O11-AA; test: two-hybrid library CCmax; conditions: mean of both orientations
T12 chain: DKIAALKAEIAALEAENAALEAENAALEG

4H_BCR = biological target: T13, 4H_BCR; test: two-hybrid library CCmax; conditions: mean of both orientations
T13 chain: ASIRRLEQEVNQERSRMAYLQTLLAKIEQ

O13-AA = biological target: T14, O13-AA; test: two-hybrid library CCmax; conditions: mean of both orientations
T14 chain: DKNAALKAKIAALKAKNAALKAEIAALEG

4H2736-AA = biological target: T15, 4H2736-AA; test: two-hybrid library CCmax
T15 chain: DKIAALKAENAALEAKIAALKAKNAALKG

4H3625-AA = biological target: T16, 4H3625-AA; test: two-hybrid library CCmax; conditions: mean of both orientations
T16 chain: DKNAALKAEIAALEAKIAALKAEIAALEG

GCN2_T = test: two-hybrid library CCmax
4H3590-AA = biological target: T17, 4H3590-AA; test: two-hybrid library CCmax; conditions: mean of both orientations
T17 chain: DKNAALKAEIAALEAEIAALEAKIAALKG

4H43-AA = biological target: T18, 4H43-AA; test: two-hybrid library CCmax
T18 chain: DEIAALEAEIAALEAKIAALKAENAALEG

4H470-bH = biological target: T19, 4H470-bH; test: two-hybrid library CCNG1
T19 chain: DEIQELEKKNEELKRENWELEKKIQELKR

4H3961-bH = biological target: T20, 4H3961-bH; test: two-hybrid library CCNG1; conditions: mean of both orientations
T20 chain: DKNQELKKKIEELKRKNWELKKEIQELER

APC3645-AA = biological target: T21, APC3645-AA; test: two-hybrid library CCmax; conditions: mean of both orientations
T21 chain: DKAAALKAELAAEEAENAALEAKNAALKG

APC2405-AA = biological target: T22, APC2405-AA; test: two-hybrid library CCmax; conditions: mean of both orientations
T22 chain: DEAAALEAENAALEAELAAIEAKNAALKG

APC8910-AA = biological target: T23, APC8910-AA; test: two-hybrid library CCmax; conditions: mean of both orientations
T23 chain: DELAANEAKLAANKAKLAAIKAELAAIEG

APC9319-AA = biological target: T24, APC9319-AA; test: two-hybrid library CCmax; conditions: mean of both orientations
T24 chain: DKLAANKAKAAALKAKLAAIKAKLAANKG

APC6108-AA = biological target: T25, APC6108-AA; test: two-hybrid library CCmax; conditions: mean of both orientations
T25 chain: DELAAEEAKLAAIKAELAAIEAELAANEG

4H733-AA = biological target: T26, 4H733-AA; test: two-hybrid library CCmax
T26 chain: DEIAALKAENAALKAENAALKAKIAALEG

4H807-AA = biological target: T27, 4H807-AA; test: two-hybrid library CCmax; conditions: mean of both orientations
T27 chain: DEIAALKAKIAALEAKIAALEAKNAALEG

APC232-AA = biological target: T28, APC232-AA; test: two-hybrid library CCmax; conditions: mean of both orientations
T28 chain: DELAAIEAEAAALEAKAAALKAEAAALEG

APC9096-AA = biological target: T29, APC9096-AA; test: two-hybrid library CCmax; conditions: mean of both orientations
T29 chain: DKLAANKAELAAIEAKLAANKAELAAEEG

APC4264-AA = biological target: T30, APC4264-AA; test: two-hybrid library CCmax; conditions: mean of both orientations
T30 chain: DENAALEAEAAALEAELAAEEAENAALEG

APC1434-AA = biological target: T31, APC1434-AA; test: two-hybrid library CCmax; conditions: mean of both orientations
T31 chain: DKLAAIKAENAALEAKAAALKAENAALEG

APC2237-AA = biological target: T32, APC2237-AA; test: two-hybrid library CCmax; conditions: mean of both orientations
T32 chain: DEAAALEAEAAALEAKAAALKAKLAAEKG

APC1015-AA = biological target: T33, APC1015-AA; test: two-hybrid library CCmax; conditions: mean of both orientations
T33 chain: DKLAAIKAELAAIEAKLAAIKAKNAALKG

APC5383-AA = biological target: T34, APC5383-AA; test: two-hybrid library CCmax; conditions: mean of both orientations
T34 chain: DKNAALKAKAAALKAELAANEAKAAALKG

APC4436-AA = biological target: T35, APC4436-AA; test: two-hybrid library CCmax; conditions: mean of both orientations
T35 chain: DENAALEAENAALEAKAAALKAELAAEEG

APC8191-AA = biological target: T36, APC8191-AA; test: two-hybrid library CCmax; conditions: mean of both orientations
T36 chain: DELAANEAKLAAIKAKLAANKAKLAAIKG

APC7099-AA = biological target: T37, APC7099-AA; test: two-hybrid library CCmax; conditions: mean of both orientations
T37 chain: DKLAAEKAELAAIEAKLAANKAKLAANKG

APC4011-AA = biological target: T38, APC4011-AA; test: two-hybrid library CCmax; conditions: mean of both orientations
T38 chain: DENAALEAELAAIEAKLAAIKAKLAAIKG

4H496-bA = biological target: T39, 4H496-bA; test: two-hybrid library CCNG1
T39 chain: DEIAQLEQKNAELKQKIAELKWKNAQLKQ

P8A-bS = biological target: T40, P8A-bS; test: two-hybrid library CCNG1
T40 chain: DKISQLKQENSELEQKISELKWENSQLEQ

P9A-bS = biological target: T41, P9A-bS; test: two-hybrid library CCNG1
T41 chain: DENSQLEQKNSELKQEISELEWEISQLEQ

P6A-bS = biological target: T42, P6A-bS; test: two-hybrid library CCNG1
T42 chain: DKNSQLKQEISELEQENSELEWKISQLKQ

P7A-bS = biological target: T43, P7A-bS; test: two-hybrid library CCNG1
T43 chain: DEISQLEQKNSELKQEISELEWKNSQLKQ

4H754-bN = biological target: T44, 4H754-bN; test: two-hybrid library CCNG1
T44 chain: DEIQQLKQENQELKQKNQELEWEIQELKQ

4H687-bN = biological target: T45, 4H687-bN; test: two-hybrid library CCNG1
T45 chain: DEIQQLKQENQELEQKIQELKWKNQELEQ

4H717-bN = biological target: T46, 4H717-bN; test: two-hybrid library CCNG1
T46 chain: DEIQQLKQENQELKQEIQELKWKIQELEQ

4H462-bN = biological target: T47, 4H462-bN; test: two-hybrid library CCNG1
T47 chain: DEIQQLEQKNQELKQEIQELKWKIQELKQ

4H457-bN = biological target: T48, 4H457-bN; test: two-hybrid library CCNG1
T48 chain: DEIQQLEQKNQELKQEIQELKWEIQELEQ

4H607-bN = biological target: T49, 4H607-bN; test: two-hybrid library CCNG1
T49 chain: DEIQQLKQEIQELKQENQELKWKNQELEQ

4H883-bN = biological target: T50, 4H883-bN; test: two-hybrid library CCNG1
T50 chain: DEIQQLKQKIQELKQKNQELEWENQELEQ

4H4001-bN = biological target: T51, 4H4001-bN; test: two-hybrid library CCNG1
T51 chain: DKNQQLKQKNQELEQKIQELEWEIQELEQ

4H918-bN = biological target: T52, 4H918-bN; test: two-hybrid library CCNG1
T52 chain: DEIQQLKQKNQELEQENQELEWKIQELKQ

4H967-bN = biological target: T53, 4H967-bN; test: two-hybrid library CCNG1
T53 chain: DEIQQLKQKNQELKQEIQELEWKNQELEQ

4H568-bN = biological target: T54, 4H568-bN; test: two-hybrid library CCNG1
T54 chain: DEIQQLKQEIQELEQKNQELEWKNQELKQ

4H953-bN = biological target: T55, 4H953-bN; test: two-hybrid library CCNG1
T55 chain: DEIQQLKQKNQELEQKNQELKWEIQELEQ

4H797-bN = biological target: T56, 4H797-bN; test: two-hybrid library CCNG1
T56 chain: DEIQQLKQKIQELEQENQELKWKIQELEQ

4H454-bN = biological target: T57, 4H454-bN; test: two-hybrid library CCNG1
T57 chain: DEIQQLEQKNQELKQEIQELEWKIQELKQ

4H72-bN = biological target: T58, 4H72-bN; test: two-hybrid library CCNG1
T58 chain: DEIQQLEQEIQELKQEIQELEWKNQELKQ

4H908-bN = biological target: T59, 4H908-bN; test: two-hybrid library CCNG1
T59 chain: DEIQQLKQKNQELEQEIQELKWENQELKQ

Sequence of 4H_GCN4 (chain, as listed by the source): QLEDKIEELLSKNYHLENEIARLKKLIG

## DKIAALKAENAALEAKIAALKAKNAALKG [4H2736-AA]
4H_APH
  interaction score: -1.33
4H384-AA
  interaction score: -1.67
4H3049-AA
  interaction score: 0.275
4H_GCN4
  interaction score: -2.46
4H510-AA
  interaction score: -1.15
4H3905-AA
  interaction score: -1.18
4H337-AA
  interaction score: -0.315
4H451-AA
  interaction score: 0.882
4H2888-AA
  interaction score: -0.685
O14-AA
  interaction score: -0.38
4H4038-AA
  interaction score: -0.154
4H3587-AA
  interaction score: -1.26
O11-AA
  interaction score: -0.615
4H_BCR
  interaction score: -1.69
O13-AA
  interaction score: 0.351
4H2736-AA
  interaction score: -1.62
4H3625-AA
  interaction score: 0.218
GCN2_T
  interaction score: -0.66
4H3590-AA
  interaction score: -0.712
4H43-AA
  interaction score: -0.422

## DKNQELKKKIEELKRKNWELKKEIQELER [4H3961-bH]
4H470-bH
  interaction score: 1.3
4H3961-bH
  interaction score: -1.2

## DEIAALKAENAALKAENAALKAKIAALEG [4H733-AA]
APC3645-AA
  interaction score: -1.25
APC2405-AA
  interaction score: -1.28
APC8910-AA
  interaction score: -1.37
APC9319-AA
  interaction score: -2.02
APC6108-AA
  interaction score: -1.39
4H733-AA
  interaction score: 2.16
4H807-AA
  interaction score: -1.53
APC232-AA
  interaction score: -1.82
APC9096-AA
  interaction score: -1.46
APC4264-AA
  interaction score: -1.83
APC1434-AA
  interaction score: -1.75
APC2237-AA
  interaction score: -1.41
APC1015-AA
  interaction score: -1.46
APC5383-AA
  interaction score: -2.26
APC4436-AA
  interaction score: -1.66
APC8191-AA
  interaction score: -1.19
APC7099-AA
  interaction score: -1.67
APC4011-AA
  interaction score: -1.54

## DEIAQLEQKNAELKQKIAELKWKNAQLKQ [4H496-bA]
4H496-bA
  interaction score: -0.521

## DKNSQLKQEISELEQENSELEWKISQLKQ [P6A-bS]
P8A-bS
  interaction score: 0.0461
P9A-bS
  interaction score: -0.77
P6A-bS
  interaction score: -2.31
P7A-bS
  interaction score: 1.24

## DKNQQLKQKNQELEQKIQELEWEIQELEQ [4H4001-bN]
4H754-bN
  interaction score: -1.75
4H687-bN
  interaction score: -1.77
4H717-bN
  interaction score: -1.63
4H462-bN
  interaction score: -0.667
4H457-bN
  interaction score: -0.688
P6A-bS
  interaction score: -2.58
4H607-bN
  interaction score: -1.46
4H883-bN
  interaction score: -0.641
4H4001-bN
  interaction score: -0.804
4H918-bN
  interaction score: -0.935
4H967-bN
  interaction score: -2.32
4H568-bN
  interaction score: -2.33
4H953-bN
  interaction score: -1.5
4H797-bN
  interaction score: -1.1
4H454-bN
  interaction score: 0.0134
4H72-bN
  interaction score: -1.03
4H908-bN
  interaction score: -1.27
